According to US20240327477A1, “COMPOSITIONS AND METHODS FOR THE TREATMENT OF TDP-43 PROTEINOPATHIES” (SOLA BIOSCIENCES LLC, priority 2020, published 2024):

Assays:
Assay type in all cases: cell-based
GFP-TDP43CTF = biological target: T1, GFP-TDP43CTF (Homo sapiens, UniProt Q13148); experiment: Fluorescence microscopy of GFP-TDP43CTF aggregation (GFP foci) in transfected HEK293 cells; conditions: HEK293 cells; for % Aggregation (normalized to GFP-TDP43CTF alone): GFP-TDP43CTF reporter
T1 construct: expressed in transfected cells; host or cells: HEK293
Method: (§1) Expression vector plasmids encoding various protein constructs were transfected into HEK293 cells with Lipofectamine 3000 transfection reagent (Thermo Fisher Scientific). Cell lysates were analyzed for expressed proteins using immunoblot assays. Samples of culture media were centrifuged to remove debris prior to analysis. Cells were lysed in a lysis buffer (10 mM Tris-HCl, pH 8.0, 150 mM NaCl, 10 mM EDTA, 2% SDS) containing 2 mM PMSF and protease cocktail (Complete Protease Inhibitor Cocktail; Sigma). After brief sonication, the samples were analyzed for expressed proteins using immunoblot assays. For immunoblot analysis, samples were boiled in an SDS-sample buffer and run on polyacrylamide electrophoresis. Thereafter, the separated protein bands were transferred to a PVDF membrane.
(§2) In some instances, aggregation of TDP-43 (full-length of C-terminal fragment) GFP reporter constructs (described below) were detected in vivo using fluorescence microscopy. Cultured cells expressing the reporter constructs as well as the fusion protein comprising the J domain and TDP-43-binding domain were washed with PBS and fixed with 4% paraformaldehyde in PBS for 5 minutes. After three 5-min washes with PBS, nuclear DNA was stained with DAPI. Percentage of cells containing TDP-43 (GFP foci) in transfected cells was counted.
We first investigated whether the fusion molecule of the present invention targeting TDP-43 ameliorates its aggregation in cultured cells. To this end, we generated GFP-based reporter constructs GFP-TDP43 and GFP-TDP43, wherein GFP was fused at its C-terminus to either the full-length human TDP-43 protein or the C-terminal fragment TDP-43 which is known to form cytoplasmic aggregation and cytotoxicity (See Table 8 below). HEK293 cells were cultured and transfected with the plasmids encoding the full-length TDP43 or the C-terminal fragment of TDP43, containing the C-terminal 207 amino acids TDP-43 (amino acids 208-414 of human TDP-43) as a GFP fusion [GFP-TDP43FL (SEQ ID NO: 101) or GFP-TDP43CTF (SEQ ID NO: 102)].

GFP-TDP43FL [1] = biological target: T2, GFP-TDP43FL (Homo sapiens, UniProt Q13148); experiment: Immunoblot (anti-GFP) of reporter level in cell extracts; conditions: cell extracts (FIG. 5)
T2 construct: expressed in transfected cells; host or cells: HEK293
Method: as §1
(§3) Expressed proteins were detected using a chemiluminescent signal. Briefly, blots were reacted with a primary antibody capable of binding the particular epitope (e.g., GFP). After rinsing away the unreacted primary antibody, a secondary, enzyme-linked antibody (e.g., HRP-linked anti-lgG antibody) was allowed to react with the primary antibody molecules bound to the blots. Following rinsing, a chemiluminescent reagent was added, and the resultant chemiluminescent signals in the blots were captured on X-ray film.

GFP-TDP43FL [2] = biological target: T2, GFP-TDP43FL; experiment: Fluorescence microscopy of GFP-TDP43FL aggregation (GFP foci) in transfected HEK293 cells; conditions: GFP-TDP43FL reporter, HEK293 cells, Table 10 (FIG. 3/4)
Method: as §1
as §2, with “counted. […]” for “counted.”

[3] = biological target: T3, phosphorylated GFP-TDP43CTF reporter (Homo sapiens, UniProt Q13148); experiment: Immunoblot with anti-phospho TDP43 antibody (cell extracts and fractions); conditions: cell extracts, anti-phosphoTDP43 antibody, Table 13 (FIG. 12)
T3 construct: expressed in transfected cells; host or cells: HEK293

[4] = biological target: T3, phosphorylated GFP-TDP43CTF reporter; experiment: as above
Excerpt: Cells expressing either GFP-TDP43FL (lanes 1 and 7) or GFP-TDP43CTF (lanes 2-6, 8-12) were co-transfected with Construct 3 (lanes 3 and 9), Construct 17 (lanes 4 and 10), Construct 18 (lanes 5 and 11) and Construct 19 (lanes 6 and 12). Soluble fractions (lanes 1-6) and insoluble fractions (lanes 7-12) were probed with anti-phospho TDP43 antibodies.
as §1, §3
Transfected HEK293 cells are homogenized in RIPA buffer (50 mM Tris, pH7.5, 150 mM NaCl, 0.1% NP-40, 0.5% sodium deoxycholate, 0.1% SDS) supplemented with protease inhibitor cocktail, 2 mM PMSF, 10 mM NaF, and 2 mM Na3VO4. After brief sonication, protein concentration is measured by BCA assay kit (Pierce). […]

B1: Construct 2: scFv(3B12A)-only control; binds TDP-43 (protein)
scFv: MGTGSEFDIAAAEVQLQQSGAELVKPGASVKLSCTASGFNIKDYYMHWVKQRTEQGLEWIGRIDPEDGETKYAPKFQGKATITADTSSNTAYLQLSSLTSEDTAVYYCTIIYYYGSRYVDYWGQGTTLTVSGGGGSGGGGSGGGGSEIVLTQSPTTMAASPGEKITITCSASSSISSSYLHWYQQKPGFSPKLLIYRTSNLASGVPARFSGSGSGTSYSLTIGTMEAEDVATYYCQQGSSIPLTFGSGTKLEI
- aggregation of GFP-TDP43CTF reporter in cells (in words) (GFP-TDP43CTF; vs reporter alone): did not reduce aggregation
- levels of the full-length reporter construct (GFP-TDP43FL), anti-GFP immunoblot (in words) (GFP-TDP43FL [1]): No differences

B2: 2 (protein)
scFv: MGTGSEFDIAAAEVQLQQSGAELVKPGASVKLSCTASGFNIKDYYMHWVKQRTEQGLEWIGRIDPEDGETKYAPKFQGKATITADTSSNTAYLQLSSLTSEDTAVYYCTIIYYYGSRYVDYWGQGTTLTVSGGGGSGGGGSGGGGSEIVLTQSPTTMAASPGEKITITCSASSSISSSYLHWYQQKPGFSPKLLIYRTSNLASGVPARFSGSGSGTSYSLTIGTMEAEDVATYYCQQGSSIPLTFGSGTKLEI
- % Aggregation (normalized to GFP-TDP43CTF alone) (GFP-TDP43CTF; Table 10 (FIG. 3/4)): 80.05%
- % Aggregation (normalized to GFP-TDP43CTF alone) (GFP-TDP43CTF; Table 12 (FIG. 8/9A)): 98.40%
- % Aggregation (normalized to GFP-TDP43CTF alone) (GFP-TDP43FL [2]): 5.86%
- % Phospho-TDP43 density (normalized to GFP-TDP43CTF alone) [3]: 122.81%

B3: 15 (protein)
chain: MDYYKILGVDKNASEDEIKKAYRKRALMHHPDRHSGASAEVQKEEEKKFKEVGEAFTILSDPKKKTRYDSGQDIGGGGSGGGGSGGGGSGGGGSAAAEVQLQQSGAELVKPGASVKLSCTASGFNIKDYYMHWVKQRTEQGLEWIGRIDPEDGETKYAPKFQGKATITADTSSNTAYLQLSSLTSEDTAVYYCTIIYYYGSRYVDYWGQGTTLTVSGGGGSGGGGSGGGGSEIVLTQSPTTMAASPGEKITITCSASSSISSSYLHWYQQKPGFSPKLLIYRTSNLASGVPARFSGSGSGTSYSLTIGTMEAEDVATYYCQQGSSIPLTFGSGTKLEI
- % Phospho-TDP43 density (normalized to GFP-TDP43CTF alone) [3]: 47.89%

B4: 19 (protein)
chain: MGKDYYQTLGLARGASDEEIKRAYRRQALRYHPDKNKEPGAEEKFKEIAEAYDVLSDPRKREIFDRYGEEGLKGSEVQLQQSGAELVKPGASVKLSCTASGFNIKDYYMHWVKQRTEQGLEWIGRIDPEDGETKYAPKFQGKATITADTSSNTAYLQLSSLTSEDTAVYYCTIIYYYGSRYVDYWGQGTTLTVSGGGGSGGGGSGGGGSEIVLTQSPTTMAASPGEKITITCSASSSISSSYLHWYQQKPGFSPKLLIYRTSNLASGVPARFSGSGSGTSYSLTIGTMEAEDVATYYCQQGSSIPLTFGSGTKLEI
- % Phospho-TDP43 density (normalized to GFP-TDP43CTF alone) Insoluble fraction ([4]; insoluble fraction, Table 14 (FIG. 14)): 22.77%
- % Phospho-TDP43 density (normalized to GFP-TDP43CTF alone) Soluble fraction ([4]; soluble fraction, Table 14 (FIG. 14)): 11.20%

B5: 11 (protein)
chain: MSVVGLDVGSQSCYIAVARAGGIETIANEFSDRCTPSVISFGSKNRTIGVAAKNQQITHANNTVSNFKRFHGRAFNDPFIQKEKENLSYDLVPLKNGGVGIKVMYMGEEHLFSVEQITAMLLTKLKETAENSLKKPVTDCVISVPSFFTDAERRSVLDAAQIVGLNCLRLMNDMTAVALNYGIYKQDLPSLDEKPRIVVFVDMGHSAFQVSACAFNKGKLKVLGTAFDPFLGGKNFDEKLVEHFCAEFKTKYKLDAKSKIRALLRLYQECEKLKKLMSSNSTDLPLNIECFMNDKDVSGKMNRSQFEELCAELLQKIEVPLYSLLEQTHLKVEDVSAVEIVGGATRIPAVKERIAKFFGKDISTTLNADEAVARGCALQCAILSPAFKVREFSVTDAVPFPISLIWNHDSEDTEGVHEVFSRNHAAPFSKVLTFLRRGPFELEAFYSDPQGVPYPEAKIGRFVVQNVSAQKDGEKSRVKVKVRVNTHGIFTISTASMVEKVPTEENEMSSEADMECLNQRPPENPDTDANEKKVDQPPEAKKPKIKVVNVELPIEANLVWQLGKDLLNMYIETEGKMIMQDKLEKERNDAKNAVEEYVYEFRDKLCGPYEKFICEQDHQNFLRLLTETEDWLYEEGEDQAKQAYVDKLEELMKIGTPVKVRFQEAEERPKMFEELGQRLQHYAKIAADFRNKDEKYNHIDESEMKKVEKSVNEVMEWMNNVMNAQAKKSLDQDPVVRAQEIKTKIKELNNTCEPVVTQPKPKIESPKLERTPNGPNIDKKEEDLEDKNNFGAEPPHQNGECYPNEKNSVNMDLD
- % Aggregation (normalized to GFP-TDP43CTF alone) (GFP-TDP43CTF; Table 12 (FIG. 8/9A)): 115.34%

B6: Construct 16: comprises a J domain without the consensus HPD sequence (SEQ ID NO: 16), fused to scFv(3B12A) (protein)
chain: MGQDYYSVLGITRNSEDAQIKQAYRRLALKHHPLKSNEPSSAEIFRQIAEAYDVLSDPMKRGIYDKFGEEGLKGGDIGGGGSGGGGSGGGGSGGGGSAAAEVQLQQSGAELVKPGASVKLSCTASGFNIKDYYMHWVKQRTEQGLEWIGRIDPEDGETKYAPKFQGKATITADTSSNTAYLQLSSLTSEDTAVYYCTIIYYYGSRYVDYWGQGTTLTVSGGGGSGGGGSGGGGSEIVLTQSPTTMAASPGEKITITCSASSSISSSYLHWYQQKPGFSPKLLIYRTSNLASGVPARFSGSGSGTSYSLTIGTMEAEDVATYYCQQGSSIPLTFGSGTKLEI
- ability to reduce aggregation of the GFP-TDP43CTF reporter construct (in words, with Tables 13 and 14) ([4]; HEK293 cells): not able to reduce aggregation

B7: 16 (protein)
chain: MGQDYYSVLGITRNSEDAQIKQAYRRLALKHHPLKSNEPSSAEIFRQIAEAYDVLSDPMKRGIYDKFGEEGLKGGDIGGGGSGGGGSGGGGSGGGGSAAAEVQLQQSGAELVKPGASVKLSCTASGFNIKDYYMHWVKQRTEQGLEWIGRIDPEDGETKYAPKFQGKATITADTSSNTAYLQLSSLTSEDTAVYYCTIIYYYGSRYVDYWGQGTTLTVSGGGGSGGGGSGGGGSEIVLTQSPTTMAASPGEKITITCSASSSISSSYLHWYQQKPGFSPKLLIYRTSNLASGVPARFSGSGSGTSYSLTIGTMEAEDVATYYCQQGSSIPLTFGSGTKLEI
- % Phospho-TDP43 density (normalized to GFP-TDP43CTF alone) [3]: 106.49%
